Experimental findings from the supplement of paper PMC11246515 are described below.

± gives the standard deviation of the averaged measurements.

This data set in a line: total protein half-life in vivo (active degradation + dilution); higher = more stable protein.
[1] abbreviates: E. coli NCM3722 delta-clpP delta-lon delta-hslV, growth: N-lim chemostat, doubling time 6 h.
[2] abbreviates: E. coli NCM3722 delta-smpB, growth: N-lim chemostat, doubling time 6 h.
Where [3] appears, read: wild type E. coli NCM3722, growth: C-lim chemostat, doubling time 12 h.
[4] abbreviates: wild type E. coli NCM3722, growth: N-lim chemostat, doubling time 12 h.
Setting [5] is: E. coli NCM3722 delta-clpP, growth: N-lim chemostat, doubling time 6 h.
Setting [6] is: E. coli NCM3722 delta-hslV, growth: N-lim chemostat, doubling time 6 h.
Setting [7] is: E. coli NCM3722 delta-lon, growth: N-lim chemostat, doubling time 6 h.
Where [8] appears, read: wild type E. coli NCM3722, growth: C-lim chemostat, doubling time 3 h.
Where [9] appears, read: wild type E. coli NCM3722, growth: C-lim chemostat, doubling time 6 h.
The mark [10] stands for this setting: wild type E. coli NCM3722, growth: N-lim chemostat, doubling time 6 h.
The mark [11] stands for this setting: wild type E. coli NCM3722, growth: P-lim chemostat, doubling time 6 h.
Where [12] appears, read: wild type E. coli NCM3722, growth: P-lim chemostat, doubling time 12 h.

With “MKRVLFFLLMIFVSFGVIADCEIQAKDHDCFTIFAKGTIFSAFPVLNNKAMWRWYQNEDIGEYYWQTELGTCKNNKFTPSGARLLIRVGSLRLNENHAIKGTLQELINTAEKTAFLGDRFRSYIRAGIYQKKSSDPVQLLAVLDNSIMVKYFKDEKPTYARMTAHLPNKNESYECLIKIQHELIRSEEK”, the “total protein half-life in vivo” value came out at 1.81 h under setting [1], 1.13 h under setting [2], 10.3 h under setting [3] and 4.57 h under setting [4].

Consider “MIRNVLLAFMICSGMTLLGGCSSVMSHTGGKEGTYPGTRASATMIGDDETNWGTKSLAILDMPFTAVMDTLLLPWDVFRKDSSVRSRVEKSEANAQATNAVIPPARMPDN [P0ADM4]”, for which the “total protein half-life in vivo” value runs as follows: under setting [1], 5.58 ± 0.24 h; under setting [5], 6 ± 0.66 h; under setting [6], 5.46 ± 0.49 h; under setting [7], 5.9 ± 0.34 h; under setting [2], 4.43 ± 0.12 h; under setting [8], 2.6 ± 0.12 h. In addition, the “total protein half-life in vivo” value by setting is: under setting [9], 4.71 ± 0.37 h; under setting [3], 8.87 ± 1.3 h; under setting [10], 5.84 ± 0.094 h; under setting [4], 11 ± 1.4 h; under setting [11], 4.8 ± 0.24 h; under setting [12], 11.1 ± 0.31 h.

In the case of “MKMNKSLIVLCLSAGLLASAPGISLADVNYVPQNTSDAPAIPSAALQQLTWTPVDQSKTQTTQLATGGQQLNVPGISGPVAAYSVPANIGELTLTLTSEVNKQTSVFAPNVLILDQNMTPSAFFPSSYFTYQEPGVMSADRLEGVMRLTPALGQQKLYVLVFTTEKDLQQTTQLLDPAKAYAKGVGNSIPDIPDPVARHTTDGLLKLKVKTNSSSSVLVGPLFGSSAPAPVTVGNTAAPAVAAPAPAPVKKSEPMLNDTESYFNTAIKNAVAKGDVDKALKLLDEAERLGSTSARSTFISSVKGKG”, the “total protein half-life in vivo” value amounted to 5.04 ± 2.7 h under setting [1]; 3.08 h under setting [5]; 6.28 h under setting [6]; 3.75 ± 0.98 h under setting [7]; 2.82 ± 0.1 h under setting [2]; 2.84 ± 0.031 h under setting [8]. In addition, the “total protein half-life in vivo” value amounted to 4.94 ± 0.13 h under setting [9]; 10.5 ± 1.6 h under setting [3]; 3.93 ± 0.67 h under setting [10]; 7.51 ± 0.25 h under setting [4]; 4.18 h under setting [11]; 6.149 ± 0.0079 h under setting [12].

Turning to “MAQLYFYYSAMNAGKSTALLQSSYNYQERGMRTVVYTAEIDDRFGAGKVSSRIGLSSPAKLFNQNSSLFDEIRAEHEQQAIHCVLVDECQFLTRQQVYELSEVVDQLDIPVLCYGLRTDFRGELFIGSQYLLAWSDKLVELKTICFCGRKASMVLRLDQAGRPYNEGEQVVIGGNERYVSVCRKHYKEALQVDSLTAIQERHRHD”, the “total protein half-life in vivo” value runs as follows: under setting [1], 4.73 ± 0.29 h; under setting [5], 4.06 ± 0.5 h; under setting [6], 3.97 ± 0.089 h; under setting [7], 5.17 ± 1.3 h; under setting [2], 3.82 ± 0.42 h; under setting [8], 2.47 ± 0.051 h. The “total protein half-life in vivo” value is 4.98 ± 0.062 h under setting [9]; 10.3 ± 0.56 h under setting [3]; 3.86 ± 0.31 h under setting [10]; 6.8 ± 0.12 h under setting [4]; 5.92 ± 0.58 h under setting [11]; 11.7 ± 0.69 h under setting [12].

In the case of “MYHDVSYLLSRLINGPLSLRQIYFASSNGPVPDLAYQVDFPRLEIVLEGEFVDTGAGATLVPGDVLYVPAGGWNFPQWQAPATTFSVLFGKQQLGFSVVQWDGKQYQNLAKQHVARRGPRIGSFLLQTLNEMQMQPQEQQTARLIVASLLSHCRDLLGSQIQTASRSQALFEAIRDYIDERYASALTRESVAQAFYISPNYLSHLFQKTGAIGFNEYLNHTRLEHAKTLLKGYDLKVKEVAHACGFVDSNYFCRLFRKNTERSPSEYRRQYHSQLTEKPTTPE”, the “total protein half-life in vivo” value is, setting by setting: under setting [1], 5.77 ± 0.063 h; under setting [5], 3.94 h; under setting [6], 4.1 h; under setting [7], 5.72 ± 1.3 h; under setting [2], 4.21 ± 0.49 h; under setting [8], 2.6 h. Further, the “total protein half-life in vivo” value was determined as 6.09 ± 1.5 h under setting [9]; 8.5207 ± 0.0056 h under setting [3]; 3.8 ± 0.55 h under setting [10]; 6.04 h under setting [4]; 3.26 h under setting [11]; 5.79 ± 0.83 h under setting [12].

With “MISRVTEALSKVKGSMGSHERHALPGVIGDDLLRFGKLPLCLFICIILTAVTVVTTAHHTRLLTAQREQLVLERDALDIEWRNLILEENALGDHSRVERIATEKLQMQHVDPSQENIVVQK [P0AEN4]”, the “total protein half-life in vivo” value runs as follows: under setting [1], 4.86 ± 0.82 h; under setting [5], 3.72 ± 0.074 h; under setting [6], 2.91 h; under setting [7], 4.25 ± 0.28 h; under setting [2], 3.44 ± 0.1 h; under setting [8], 2.6 ± 0.074 h. The “total protein half-life in vivo” value came out at 3.85 h under setting [9]; 7.71 ± 1.4 h under setting [3]; 4.3 ± 0.56 h under setting [10]; 5.19 ± 0.39 h under setting [4]; 4.04 ± 0.16 h under setting [11]; 5.75 ± 1.9 h under setting [12].
